Measured values as given in patent US20200016237A1.

Key:
[1] = target: Neogenin on murine brain-derived endothelial cells (b.end3) (mouse) (UniProt P97798); assay: cell-based or functional assay
[2] = target: Alkaline Phosphatase-tagged extracellular domains of Neogenin (Ec-Neogenin-AP); assay: plate competition binding assay, His-tagged protein coated, AP-tagged protein detected with pNPP at 405 nm; sRGMa pre-incubated with Ec-Neogenin-AP

Sequence of Neogenin on murine brain-derived endothelial cells (b.end3) (mouse) (P97798 37-1492): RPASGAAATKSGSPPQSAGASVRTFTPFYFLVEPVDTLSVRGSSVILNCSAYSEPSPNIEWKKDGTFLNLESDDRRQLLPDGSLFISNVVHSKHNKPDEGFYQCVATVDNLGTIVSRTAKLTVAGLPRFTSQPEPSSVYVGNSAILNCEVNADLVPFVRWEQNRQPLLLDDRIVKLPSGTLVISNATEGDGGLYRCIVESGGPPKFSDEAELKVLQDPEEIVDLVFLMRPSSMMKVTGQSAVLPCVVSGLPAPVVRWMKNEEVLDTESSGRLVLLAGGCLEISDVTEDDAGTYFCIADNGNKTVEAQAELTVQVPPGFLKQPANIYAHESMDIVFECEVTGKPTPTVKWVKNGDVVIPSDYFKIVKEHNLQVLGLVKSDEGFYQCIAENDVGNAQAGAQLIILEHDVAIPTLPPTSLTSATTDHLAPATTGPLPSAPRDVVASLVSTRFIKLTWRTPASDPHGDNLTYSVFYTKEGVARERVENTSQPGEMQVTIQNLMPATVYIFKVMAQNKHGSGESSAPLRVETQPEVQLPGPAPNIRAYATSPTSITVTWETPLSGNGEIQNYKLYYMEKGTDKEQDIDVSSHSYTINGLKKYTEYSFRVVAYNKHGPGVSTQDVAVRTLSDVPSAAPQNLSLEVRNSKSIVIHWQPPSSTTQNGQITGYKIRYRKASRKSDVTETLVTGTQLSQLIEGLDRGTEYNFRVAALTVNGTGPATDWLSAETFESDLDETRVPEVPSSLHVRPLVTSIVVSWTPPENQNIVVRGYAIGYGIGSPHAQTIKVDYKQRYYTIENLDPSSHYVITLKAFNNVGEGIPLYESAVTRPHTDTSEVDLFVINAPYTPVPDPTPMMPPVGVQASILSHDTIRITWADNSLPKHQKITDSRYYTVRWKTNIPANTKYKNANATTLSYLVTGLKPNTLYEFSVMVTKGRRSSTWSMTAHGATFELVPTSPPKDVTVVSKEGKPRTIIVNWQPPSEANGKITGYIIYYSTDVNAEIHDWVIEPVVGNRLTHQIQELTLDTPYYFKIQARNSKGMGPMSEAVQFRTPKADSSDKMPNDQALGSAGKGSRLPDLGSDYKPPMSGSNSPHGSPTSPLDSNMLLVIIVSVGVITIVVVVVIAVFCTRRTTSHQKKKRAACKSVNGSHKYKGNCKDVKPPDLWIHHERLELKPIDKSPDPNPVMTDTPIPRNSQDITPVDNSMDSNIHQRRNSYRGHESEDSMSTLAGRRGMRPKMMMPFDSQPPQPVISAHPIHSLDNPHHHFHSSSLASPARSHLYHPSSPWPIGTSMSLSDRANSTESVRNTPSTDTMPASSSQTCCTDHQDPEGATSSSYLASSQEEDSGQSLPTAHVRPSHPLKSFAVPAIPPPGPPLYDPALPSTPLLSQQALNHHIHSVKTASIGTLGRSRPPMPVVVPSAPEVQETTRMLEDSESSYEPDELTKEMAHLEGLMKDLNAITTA

fold decrease in Claudin 5 levels in b.End3 cells (Western blot) [1]: 2 fold | fold reduction of binding intensity of RGMc to Neogenin against BSA control [2]: 3 fold
Substance: soluble RGMa (sRGMa), mouse, His tag replacing the GPI anchor (from UniProt Q6PCX7 170-427) (ligand)
